According to the domain aggregation screens of Martell et al. (2025):

Experiment: soluble fraction after stress (log2 fold change); higher = more stays soluble; pooled small domains, quantitative proteomics
Settings: stress: 75 degC
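Further: 20 min heating vs room temperature control held 20 min.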

HMEPELSVDMKPLDGLLLAIKKELQAAQMYTRLARASADAEQKMVFEQLANMEKGHKARLEDIYT
soluble fraction (log2): -0.079

HMNDIDRFIEALIEQDTLPGTNSRINEDVISEMKMMTSVEDIKAYAIATVGLTGGQVNNALINSGL
soluble fraction (log2): -0.072

HMKSVILQLHPETLRWIREEAQADMADASVIQLLNDWELGTKKPTLSQVQKLSHETHIPFGYFFLKEKPA
soluble fraction (log2): -0.64

HMFEARNTTFSEDGKTITETYGVKRIETEFVSDSTIVQKLYDNDVLTKTKTITFSADGLSIKEDV
soluble fraction (log2): -0.0561

HMTGTKEQQVVMLNNILQKQLQAFELQGKRDYPMVTMKNMYNTLSKMVENAGLQTVESYFVDPIKGQQM
soluble fraction (log2): -0.694

HMDDTRLLSEIGLSQRVLNALRARGIERVGQVLAMRPDQLLGIRNFGPRALQELRERLQENGYTEGPLFSG
soluble fraction (log2): 0.379

HMPKNEHETKAIGNQTGGRVFLFLNTDNINRDYNMYISKQVKFVREISQEYYGKVAVFEDLYGNLWDLIE
soluble fraction (log2): 0.0316

HMQTYNQLKRGMTEWIQAGQKQKAYELFAGVAGQLSLSSAAGKKQYNELVTILNRAGFGIPLE
soluble fraction (log2): -1.12

HMETKIKFQIQTLDELNIRKVADWDAKAITTVKKGQILDVVDTVAAKNGSTPMYRLESGLYITASPKYVKK
soluble fraction (log2): -1.16

HMQTTDTGAIETIVDELMAANPDKVEAYRGGKTGLQGFFMGQVMKQLGGQGNPKVISAIVTEKLE
soluble fraction (log2): 0.603

HMADKSLLELPGLDGDKVSALVTAGVRNVNDLADLATDELVEKTGFDEKTAADLIIAARAVVY
soluble fraction (log2): 0.43

HMDLATQHAAKVNAAILAARRFEREGSWRQVAAKYSEALQLMPGNEQASRGYQQAMAMLDERD
soluble fraction (log2): -0.0717

HMDIYLDDINRKILHLLSQGVKTKSLRDYIDLSMSAIEKRKKHLKDLFLIEDGKDETLLSEARKKGF
soluble fraction (log2): -1.19

HMEKLPRYILPGVPKVKSINISSALDGLVQDYSREFNISQKDIFQIALVEFFKKYGYHNAVKAVL
soluble fraction (log2): -2.29

HMNIGEKIKKIRTQQNKSTYELADIINKNGFKISQSAISKIENGRKKIDIETLEEIAKALDIEVDLLIT
soluble fraction (log2): -0.153

HMAVRNTKQKQLVLSLLKNSGRPMTAGEIYRLAVQQYPNIAKSTVYRNLENLVSRGEVSQGMHQNGESFYS
soluble fraction (log2): -0.697

HMVNYKEILRLAHEGYSQRQIATNIGNSRNTVSEVLDAAKAANIAWPPEETVTNEQLGAILFPNRH
soluble fraction (log2): 0.349

HMDDEAVQIMTLHISKGLEFDVVFALGLVSRTPESKEIEELEAEKQRQLYVAMTRAEKWLIVAA
soluble fraction (log2): 0.202

HMIKITLPDGSVKEYKKGITPAEVAQSISEGLARNVISASYNGKTIETVTPLTTDGSLVLYTWDSPEGK
soluble fraction (log2): 0.0404

HMDQHPYGEDSFRGDNPPAGFDIKGNEDSMKFHEPSSPWYGRTIAEVWFRSAAAAEAAGFVNAV
soluble fraction (log2): -0.0403

HMGPPLISLDDGLAKGFGVGVGDTLTINILGRRITATIASLREIDWQSLRFDFAVVLSPGVLEGA
soluble fraction (log2): 0.237

HMDKAGWLPARVRLADYPALKQLAWQVQGVDELTPREALGIYERNWRHLDEAALLPRERNLIDALRLAFG
soluble fraction (log2): -0.72

HMSSKIKYSEFITMLDKGEVESVVLKSDTLTITLKHGTGVAAQTKTTTLMEDLSELTKRLEKAGIKDFDK
soluble fraction (log2): -1.38

HMWNPVLVVRGDFPKDLATTLLKMIFAQKEALNPHILFQNLLRTDNITFRESYPYHSASKTMFRF
soluble fraction (log2): -0.276

HMGKSDDSLAAEKFIQHVRKNGELSYEQAYRMVHAYFPDFRNFEGMVSGAVKSGYLILIQKSTGLFLRAKE
soluble fraction (log2): -3.68

HMKRITAVISQKKGRDYYYIIVSYYLSNGKRVQRWIKTEFPINGNNKRKLEQKRIEVLQEWQDKLV
soluble fraction (log2): -1.23

HMGVAFAPVEKIKHTKTGNELYAVKLAGRVEAEVFGQLRQKAKEYDGYYSKFSRAFLFSTPEDAEAFRAE
soluble fraction (log2): -0.294

HMTFPYTSLKDAPKNMKEIDGVPLTLDQVNQIAKVADSIGVSKEKNGYAIAKSQFKKSHHIENNRWVKNK
soluble fraction (log2): -0.179

HMSVADNALSRQAIESRIALFIQNEDPNHPRSDADIQKELAQAGVVISRRAITKYRNHLHIPSASLRRR
soluble fraction (log2): -1.16

HMKVSRTAVKLHHANAVEVAKKLQPLFVVGDVQIEPVKDAGIILLKGPASTLADLRESIVQMDHTA
soluble fraction (log2): -0.188

HMYSDDNKSILNLIDNLFNKENIKIDINAKKLLSNYLGVDRLVTKGEIEKAILFAGTKKHLSIEDISAFLS
soluble fraction (log2): -0.104

HMDQESFGYFHVKYADVKQVADLVQKLNIPAVTWADERTRRLVALGSPATLQRISQVLNMVDL
soluble fraction (log2): -0.781

HMEDHMVVFGKGGRITRLPDKATVLEYLDAANFFASRSSVVKVNGKLASLDQTLRDGDSIEIVD
soluble fraction (log2): -0.407

HMNEKAALIFNEWSDFVSKDDEANAQIKFDELITLYKKTGYTKIALLEVATKQASNGDIEGALAKYSLLID
soluble fraction (log2): 0.128

HMRIWTISDLYKNVEDKKVSLAVFSEDNDSNKVNVLDINGEEHSVNLLKADLPTLVDLFRKNDVRFAVRSN
soluble fraction (log2): -0.116

HMKQAVESAEAIFEEIARIKKLSLVKSEAEEIARKTGLQKFTIASQLLKNQHAYEMDESEIASLWDKKI
soluble fraction (log2): -0.0597

HMEEDPVISQAQRQALFKLAHDHFGQEEGNKVILRLIGEHGLRSTTNMTASVYKTVTDALIQVIESMVEG
soluble fraction (log2): -0.45

HMPSKTFYNLSQEKQQKIIDASEKEFSNNLYQDVSLNQIIKNSNISRGSFYMYFTDKEDLYFYLLNEY
soluble fraction (log2): -0.731

HMSEIVEEQNTKLKQAVSKLSKRQQEVLYLKFEEGLDYEQISKIMDLKYQSVRNLVSTAIIKIKEH
soluble fraction (log2): -2.72

HMEPVFSDPARQTLYQEVMELPAKYRVPLYLYYYEGYKVDEVGELLGLNASTVQTRLARARAKLKIQL
soluble fraction (log2): -0.489

HMNDADAHASVDAALKHLEALAETTPEVRAALELVRRGPDGRVTVDSFARVAEALREISIAVGAS
soluble fraction (log2): 0.024

HMKEAISIYPNPVKDILTIRGMDETSGVSFKLYDVTGNLLLESTHSELDMSGLNRGVYFLDIAGDVRKVVK
soluble fraction (log2): -0.342

HMDSDFIKIEVLFNERNRLDLKAMMEASGFTDRGQFLSIMADLTGDENWDRNLDRGDIFYLPRSFTI
soluble fraction (log2): -1.28

HMEALGLSPRQVDVLRLLVEGRSNKMIMRELELSESTVKTHLQAIFRRLGVSSRTQAVVAAARLGL
soluble fraction (log2): -1.2

HMVIREVNDNPVSAEELRLGDRVKVLSLGQNGEIVTLPDEKGELTVQVGILKAKVNLDDIMLI
soluble fraction (log2): -0.177

HMKEADVRKNEILDAAGILFSEKGYDNTSVTDIMNAVGFAKGTLYHHFKSKEDIMDALIKRQTD
soluble fraction (log2): -0.125

HMSFPFLMPNLEGLQLDQVRVILEENGLEIGQENYQPDSKFGPGTIINHQPSVDTVVQTGQKVNLQISGTD
soluble fraction (log2): 0.126

HMKTLGMDKGVNIALNDAGLRAEDVSNLSAHYDTEDGVPVYEIKFTAGGFSYEYQIKASDGTIIEADRDAA
soluble fraction (log2): -0.00738

HMRRGKLGMASRLEQIPGIGPKKRKALLKAFGNSIDAIKSAPVEDLMKVKGINLVLAESIKEL
soluble fraction (log2): -0.11

HMIRMPNLIGLSVRSAEQQLVIAGLKKGIVHQVNDPRLKEVIDMQALGHKITAGSSIPKGTEVDLYIGNGT
soluble fraction (log2): -0.944

HMDPLASLTPREREVLSLMAQGLSNLAVAERLVVSAGAVEKHISSIFTKLDLAPSEHEHRRVLAVLRYVAG
soluble fraction (log2): -2.86

HMKNTFGLTEREMEVLALIVDGLSNPEIAEKLFITRATAKAHVHSILQKLYVDDRTQAAVTAMREGL
soluble fraction (log2): -2.21

HMNSNLSLTSYEEKIFFLLEKEKNLDELILESSFKAGEILSILMDLEIKHAIVSIPGGKYRRK
soluble fraction (log2): -3.85

HMKSIFIRADELAAELDVSKALAYKMINQWNEELKAKGYTTVGGRVSRQYYYEKIYGAENVFDF
soluble fraction (log2): -1.76

HMFQTAADVAYRIISQKILDGEFPPGMKLSRRKMAEVTSVSVIPVIEALKKLEEDGLVESKPQWGSFVTI
soluble fraction (log2): -1.69

HMVEGMQFDRGYQSPYFVTNAEKMVAELDNPYILLVEKKISSMKELLPVLEPVAQQGKSLLIISEEVEG
soluble fraction (log2): 0.0546

HMYPGQILEIYLDEIKRLYLNGLSSADIFAEIKEGSIPSVKKAIRSMKDGSAPVKITEAEESTRIAPS
soluble fraction (log2): -0.543

HMGDSFLDHKKELQSMILSRLDLSREVPDEEIKDIIDELIIAQSKKLFLSLNDRGKLRQELFYSIRK
soluble fraction (log2): -1.23

HMRGLVPEIVGTLEGEIRAGTLAVGQKLPTEAEIMARFDVSRTVVREALSRLQASDLVETRHGIGTFVSAR
soluble fraction (log2): -0.647

HMSNENIDQDELQAIIQKVLASNQDAVAKYKAGKTAVIGFLIGQVMRQLNKKIDVALAKKTLLVFLEK
soluble fraction (log2): -1.42

HMSFDENEALRKALDVFWEKGYDGTSLSDLTEAMGINKPSLYATFGNKDQLFLKAIEMYENR
soluble fraction (log2): -1.4

HMIYNSGTTDSRGEAIVGGYLVTVTDTDTKDPVANAAVTLHKDNSISIRLPNSRLLDYADQTTVTVQLV
soluble fraction (log2): 0.0328

HMNLTSSDIQKILSYALLADNSITLNSIEESMASLKLKKMSAEQLIELLEVSSMVLRNTNNSWSIL
soluble fraction (log2): -2.28

HMISRKIKELRLSHDLTQKDLADYLNLTPKMVSFYELGQRVPPSDIILKLAEKFHVSTDYLLGNEDRP
soluble fraction (log2): -0.196

HMSLPNNLIEQLQDPEPKARRRAVRRLAATRDPSAIPLLRNVYLQDGDDRVRDAAEAALVQFRAMQHN
soluble fraction (log2): -0.112

HMPDPVHAAYLRLAVLLTEQAIGPQVTEQQIRDRFALTRRQTSDLMGRLIREGIAEKRAGYGWNINTELTA
soluble fraction (log2): -1.16

HMVTIYQRIMLVLEDKQVSVNALSKLVDMSQTTLNTQLKGERTLSANVVAKVLVAYPDVSAEWLMRGVGTM
soluble fraction (log2): -0.96

HMVAMYLRVGISNGRRYLSIVQGYRDQVTKKVRHNTVKSLGYLDDLEKHYPDPIAHFKAVVEEMNKKQALE
soluble fraction (log2): -2.04

HMRVPTVIGMDEGTAKATLANASLKSNIVYESDETKENGKVLSQGIEQNKEVKAGTTVEIKVNKIE
soluble fraction (log2): 0.116

HMVELGMSQNEFIQKFGKPFNKEMAYTYDKHKRETLFYKEDLYRGSWFIVTTAFTFVDSKLVSQEIVREER
soluble fraction (log2): -3.36

HMPELPPHELLRALMVEHDIKQSELPEVGPQPVVSDVLAGKRALNLRQVAALAARFHVPMEVFT
soluble fraction (log2): -0.161

HMLAMHVVESVGGAEQFTKLQNFAKTQNADYQKMWNDTMNSGNVLAIKTMLSGIQSDMIAVQ
soluble fraction (log2): -0.276

HMGPYGAGSAAPAEDGSGPEGWTVKGNAKSMLYHTEGSPYYGRTNADVWFRDEESAEAAGFRRWDRK
soluble fraction (log2): -0.0366

HMKKYIEIYNYYKQLIESEQLKSGDKMPSVRKATKIFNVSKTTVQNAYFDLQADGYIIAAPKSGYYVTEM
soluble fraction (log2): -1.07

HMTKEEFLDEIKKELGFMPYEEVIKAEKYFESYFNGSEADEKVIERFGSPKYAAQNYYRTHVAN
soluble fraction (log2): 0.029

HMNPGAYQVKAGEGLIGLSRRYNVPVDVLASVNNLNTTSSLRVGQTITIPTAAQVNRITQQAQ
soluble fraction (log2): 0.216

HMSISDEDFAKLLDFVKEKWDAGELDNAEDIKAAISEGEKEFGVSLDESTRTTLASALQQLN
soluble fraction (log2): 0.274
